Measured values taken from patent publication US20060211075A1, “Enzyme sensors including environmentally sensitive or fluorescent labels and uses thereof” (The Albert Einstein College of Medicine of Yeshiva …, priority 2005, published 2006).
Blank lines part the entries; values can stand above or below the molecule they belong to. Non-standard residues stand in square brackets, D forms with d. Residues, ends and D or L forms follow the SMILES beside them. No end group written: not given here. *: point of attachment. Cascade Yellow = fluorophore from Cascade Yellow succinimidyl ester, attached to the Dab or Dap side chain; pY = N[C@@H](Cc1ccc(OP(=O)(O)O)cc1)C(=O)O; NBD = O=[N+]([O-])c1ccc(*)c2nonc12; Dab = NCC[C@H](N)C(=O)O; Dap = NC[C@H](N)C(=O)O

Key:
GST-Lck-SH2 = target: T1, GST-Lck-SH2 (Homo sapiens, UniProt P06239); assay: Fluorescence change as a function of Lck-SH2 concentration (Src-catalyzed phosphorylation); format: biochemical
T1 construct: made in house; host or cells: E. coli
Source text: As is evident from Table 1, the dapoxyl fluorophore positioned off the +3 and +4 sites on the peptide substrate (Dap-5 and Dab-5) produce the largest changes in fluorescent behavior. Two peptides (13 and 14, FIG. 4) were examined in greater detail. Both peptides were resynthesized on the Rink resin and purified by HPLC. In addition, the phosphotyrosine version of 13 was enzymatically prepared. […] If the SH2 domain is responsible for the fluorescence change induced by Src kinase-catalyzed phosphorylation, then the Lck SH2 domain concentration should influence the observed fluorescence response. […] The reactions were initiated by the addition of ATP. When only buffer was added to “initiate” the reaction (i.e. no ATP), the fluorescence of the mixture remained unperturbed. Furthermore, in the absence of Lck SH2 domain, ATP addition to initiate the reaction furnished an exceedingly modest change in fluorescence intensity (<5%). By contrast, increasing concentrations of SH2 domain produced increasing enhancements in fluorescence intensity. Above an Lck SH2 concentration of 16 μM, the change in fluorescence intensity began to level off, which is in keeping with the notion that the interaction between phosphopeptide and Lck SH2 domain was approaching saturation. […] This appears to be a consequence of the —NH(CH2)2SH tail that is present on the library members (but not on the amide-capped peptides, as a consequence of the respective synthesis methods used).
(§1) The fluorescence change was monitored as a function of time. Control assays in the absence of Lck-SH2 were also performed.
The assay protocol described above was used to assess the effect of GST-Lck-SH2 concentration on the observed fluorescence associated with the phosphorylation of pure peptide 13 (30 nM Src) and peptide 14 (15 nM Src).

PTP1B = target: T2, PTP1B (Homo sapiens, UniProt P18031); assay: Effect of PTP1B on the fluorescence change; format: biochemical; conditions: peptide substrate 4 μM; GST-Lck-SH2 22 μM
T2 construct: purchased Invitrogen
T2 sequence (P18031 1-435): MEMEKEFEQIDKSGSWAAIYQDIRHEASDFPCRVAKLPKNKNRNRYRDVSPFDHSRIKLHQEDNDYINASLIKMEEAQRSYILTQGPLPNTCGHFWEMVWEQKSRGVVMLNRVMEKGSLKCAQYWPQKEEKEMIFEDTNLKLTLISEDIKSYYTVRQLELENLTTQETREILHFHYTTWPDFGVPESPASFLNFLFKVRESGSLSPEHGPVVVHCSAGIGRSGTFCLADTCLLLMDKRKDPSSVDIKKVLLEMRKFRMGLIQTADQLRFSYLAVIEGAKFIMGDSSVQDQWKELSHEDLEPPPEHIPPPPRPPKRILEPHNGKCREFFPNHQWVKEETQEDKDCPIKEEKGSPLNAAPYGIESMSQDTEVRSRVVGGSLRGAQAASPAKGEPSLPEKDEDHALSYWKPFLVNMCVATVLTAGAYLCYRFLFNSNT

Src [1] = target: T3, Src (Homo sapiens, UniProt P12931); assay: Src kinase-catalyzed phosphorylation of self-reporting fluorophore-peptides, fluorescence change (no detection module); conditions: for Fluorescence change (fold): upon phosphorylation; for Phosphorylation-induced fluorescence change: Src, no detection module
Description: Tyrosine kinase-catalyzed phosphorylation was initiated by addition of 15 μL of 10 mM ATP to the following solution: 3 μL 0.1 mM peptide stock solution, 3.8 μL 200 mM MgCl2, 1.5 μL 100 mM MnCl2, 23.2 μL H2O, 6 μL 50 mM DTT, 15 μL 0.1 mg/mL BSA, and 7.5 μL 0.03 μM Src in 75 μL Tris buffer solution (pH 7.2).

Lck SH2 domain = target: T4, Lck SH2 domain (Homo sapiens, UniProt P06239); assay: Effect of competing Lck-SH2 domain ligand on the fluorescence change; format: binding; conditions: ligand 50 μM, peptide substrate 4 μM, GST-Lck-SH2 22 μM
T4 construct: made in house; host or cells: E. coli
Source text: As is evident from Table 1, the dapoxyl fluorophore positioned off the +3 and +4 sites on the peptide substrate (Dap-5 and Dab-5) produce the largest changes in fluorescent behavior. Two peptides (13 and 14, FIG. 4) were examined in greater detail. Both peptides were resynthesized on the Rink resin and purified by HPLC. In addition, the phosphotyrosine version of 13 was enzymatically prepared. […] If the SH2 domain is responsible for the fluorescence change induced by Src kinase-catalyzed phosphorylation, then the Lck SH2 domain concentration should influence the observed fluorescence response. […] The reactions were initiated by the addition of ATP. When only buffer was added to “initiate” the reaction (i.e. no ATP), the fluorescence of the mixture remained unperturbed. Furthermore, in the absence of Lck SH2 domain, ATP addition to initiate the reaction furnished an exceedingly modest change in fluorescence intensity (<5%). By contrast, increasing concentrations of SH2 domain produced increasing enhancements in fluorescence intensity. Above an Lck SH2 concentration of 16 μM, the change in fluorescence intensity began to level off, which is in keeping with the notion that the interaction between phosphopeptide and Lck SH2 domain was approaching saturation. […]

Src [2] = target: T3, Src; assay: Assay of library: Src kinase-catalyzed phosphorylation of fluorophore-labeled peptides in presence of Lck-SH2, fluorescence change; format: biochemical; set-up: purchased Invitrogen; conditions: fluorophore attachment site +4; —NH2 derivative (in parentheses, amide-capped); Lck-SH2 present
Description: The library was prepared via parallel synthesis using a previously described disulfide-linked Tentagel resin (see “Synthesis of Peptide Library” below). Following solid phase synthesis of the primary sequence, the side chain amine of the Dap or Dab residue was selectively deprotected and subsequently modified with the appropriate activated forms of 5, 6, and 7. The remaining protecting groups on the peptide were then removed with trifluoroacetic acid (TFA), the peptide-resin extensively washed to eliminate the last traces of TFA, and the peptide cleaved from the resin with assay buffer (which contained dithiothreitol) and purified by HPLC. The fluorescent response of the individual library members to Src catalysis in the presence of Lck SH2 was subsequently examined in detail (see “Assay of Library” below).
as §1

Src [3] = target: T3, Src; assay: Vmax and Km of Src kinase-catalyzed phosphorylation at fixed Lck-SH2 (20 μM); format: biochemical; set-up: purchased Invitrogen; conditions: varying peptide
Description: as §1
The final Src concentration was 30 nM for peptide 13 and 15 nM for peptide 14.

[4] = fluorophore on Dap at position Y+3, λex/λem (nm) (first pair listed for the fluorophore)
[5] = fluorophore on Dab at position Y−2, λex/λem (nm) (first pair listed for the fluorophore)

T1 sequence (P06239 127-224 limits assumed): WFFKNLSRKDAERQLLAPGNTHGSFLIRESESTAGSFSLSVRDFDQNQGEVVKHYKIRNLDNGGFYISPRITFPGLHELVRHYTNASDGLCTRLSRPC
T4 sequence (P06239 127-224 limits assumed): as above

Molecule: Ac-pTyr-Glu-Glu-Ile-Glu-amide (Ac-[pY]EEIE-NH2; SMILES CC[C@H](C)[C@H](NC(=O)[C@H](CCC(=O)O)NC(=O)[C@H](CCC(=O)O)NC(=O)[C@H](Cc1ccc(OP(=O)(O)O)cc1)NC(C)=O)C(=O)N[C@@H](CCC(=O)O)C(N)=O)
fluorescence change of the Src reaction in presence of known Lck SH2 domain ligand (Lck SH2 domain): no fluorescence change was observed | fluorescence change of the Src reaction in presence of known Lck SH2 domain ligand (Lck SH2 domain; listed as Ac-pTyr-Glu-Glu-Ile-Glu-OH): no fluorescence change

Molecule: Dansyl
Fluorescence change (fold) (Src [1]; [5]): 1.0 fold | Fluorescence change (fold) (Src [1]; [4]): 1.0 fold

Molecule: NBD (Ac-EEEIY[Dap](NBD)EIEA-NH2; SMILES CC[C@H](C)[C@H](NC(=O)[C@H](CCC(=O)O)NC(=O)[C@H](CNc1ccc([N+](=O)[O-])c2nonc12)NC(=O)[C@H](Cc1ccc(O)cc1)NC(=O)[C@@H](NC(=O)[C@H](CCC(=O)O)NC(=O)[C@H](CCC(=O)O)NC(=O)[C@H](CCC(=O)O)NC(C)=O)[C@@H](C)CC)C(=O)N[C@@H](CCC(=O)O)C(=O)N[C@@H](C)C(N)=O)
Fluorescence change (fold) (Src [1]; [5]): 1.7 fold | Fluorescence change (fold) (Src [1]; [4]): 1.25 fold

Molecule: 27: corresponding peptide containing Cascade Yellow positioned at Y+3, SEQ ID NO:16 (EEEIYGE[Dap](Cascade Yellow)EA) [Peptide 27]
Phosphorylation-induced fluorescence change (Src [1]): smaller fluorescence response

The next lines start with results.

change in fluorescence intensity on ATP addition (GST-Lck-SH2; absence of Lck SH2 domain, peptide 16 μM): < 5% | Fluorescence Increase (GST-Lck-SH2; peptide 16 μM, Lck-SH2 0 μM, 30 nM Src): 1.07 fold change | Fluorescence Increase (GST-Lck-SH2; peptide 16 μM, Lck-SH2 4 μM, 30 nM Src): 1.24 fold change | Fluorescence Increase (GST-Lck-SH2; peptide 16 μM, Lck-SH2 8 μM, 30 nM Src): 1.33 fold change | Fluorescence Increase (GST-Lck-SH2; peptide 16 μM, Lck-SH2 12 μM, 30 nM Src): 1.41 fold change | Fluorescence Increase (GST-Lck-SH2; peptide 16 μM, Lck-SH2 16 μM, 30 nM Src): 1.52 fold change | Fluorescence Increase (GST-Lck-SH2; peptide 16 μM, Lck-SH2 20 μM, 30 nM Src): 1.56 fold change | Fluorescence Increase (GST-Lck-SH2; peptide 16 μM, Lck-SH2 26 μM, 30 nM Src): 1.61 fold change | Fluorescence Increase (GST-Lck-SH2; peptide 16 μM, Lck-SH2 32 μM, 30 nM Src): 1.59 fold change | fluorescence change when PTP1B is added at the same time as ATP (PTP1B): blocked the fluorescence change
Molecule: CC[C@H](C)[C@H](NC(=O)[C@H](CCC(=O)O)NC(=O)[C@H](CNc1ccc([N+](=O)[O-])c2nonc12)NC(=O)[C@H](Cc1ccc(O)cc1)NC(=O)[C@@H](NC(=O)[C@H](CCC(=O)O)NC(=O)[C@H](CCC(=O)O)NC(=O)[C@H](CCC(=O)O)NC(C)=O)[C@@H](C)CC)C(=O)N[C@@H](CCC(=O)O)C(=O)N[C@@H](C)C(N)=O [Peptide 13, Ac-Glu-Glu-Glu-Ile-Tyr-Dap(NBD)-Glu-Ile-Glu-Ala] (Ac-EEEIY[Dap](NBD)EIEA-NH2)
fluorescence intensity when PTP1B is added after completion of the Src kinase-catalyzed reaction (PTP1B): reduced the fluorescence intensity to the starting value

Fluorescence change (fold) (Src [1]; [4]): 1.06 fold
Molecule: BODIPY FL

Fluorescence Increase (GST-Lck-SH2; peptide 8 μM, Lck-SH2 0.2 μM, 15 nM Src): 1.07 fold change | Fluorescence Increase (GST-Lck-SH2; peptide 8 μM, Lck-SH2 2 μM, 15 nM Src): 1.70 fold change | Fluorescence Increase (GST-Lck-SH2; peptide 8 μM, Lck-SH2 4 μM, 15 nM Src): 2.32 fold change | Fluorescence Increase (GST-Lck-SH2; peptide 8 μM, Lck-SH2 8 μM, 15 nM Src): 4.31 fold change | Fluorescence Increase (GST-Lck-SH2; peptide 8 μM, Lck-SH2 12 μM, 15 nM Src): 5.34 fold change | Fluorescence Increase (GST-Lck-SH2; peptide 8 μM, Lck-SH2 16 μM, 15 nM Src): 6.20 fold change | Fluorescence Increase (GST-Lck-SH2; peptide 8 μM, Lck-SH2 20 μM, 15 nM Src): 6.85 fold change | Fluorescence Increase (GST-Lck-SH2; peptide 8 μM, Lck-SH2 26 μM, 15 nM Src): 7.32 fold change | Fluorescence Increase (GST-Lck-SH2; peptide 8 μM, Lck-SH2 32 μM, 15 nM Src): 7.20 fold change | Fold change in fluorescence intensity in the Src kinase-catalyzed phosphorylation (Src [2]): 7.2 fold | Km (Src [3]): 4.8 ± 0.8 µM | Vmax (Src [3]): 1.5 ± 0.1 µmol/min/mg
Molecule: Ac-Glu-Glu-Glu-Ile-Tyr-Gly-Glu-Ile-Dab(dapoxyl)-Ala (Ac-EEEIYGEI[Dab](dapoxyl)A-NH2; not fully specified; printed as Ac-Glu-Glu-Glu-Ile-Tyr-Gly-Glu-Ile-Dab(dapoxyl)-Ala) [Peptide 14]

Phosphorylation-induced fluorescence change (Src [1]): 2.7 fold
Molecule: Sensor 26: Cascade Yellow-containing sensor, fluorophore on Dab at Y−2, SEQ ID NO:15 (EE[Dab](Cascade Yellow)IYGEIEA)

Fluorescence change (fold) (Src [1]; [5]): 2.7 fold | Fluorescence change (fold) (Src [1]; [4]): 1.45 fold
Molecule: Cascade Yellow (EE[Dab](Cascade Yellow)IYGEIEA)

Fluorescence change (fold) (Src [1]; [5]): 2.1 fold | Fluorescence change (fold) (Src [1]; fluorophore on Dap at position Y+3, λex 379 nm, λem 422 nm): 1.7 fold | Fluorescence change (fold) (Src [1]; [4]): 1.7 fold
Molecule: Cascade Blue ™
